Results on nine molecules are retold here after patent US20030119102A1 (Takeda / Millennium, published 2003).

T1: rat Kv4.2 α-subunit (rat, UniProt Q63881 1-630)
T1 sequence (looked up): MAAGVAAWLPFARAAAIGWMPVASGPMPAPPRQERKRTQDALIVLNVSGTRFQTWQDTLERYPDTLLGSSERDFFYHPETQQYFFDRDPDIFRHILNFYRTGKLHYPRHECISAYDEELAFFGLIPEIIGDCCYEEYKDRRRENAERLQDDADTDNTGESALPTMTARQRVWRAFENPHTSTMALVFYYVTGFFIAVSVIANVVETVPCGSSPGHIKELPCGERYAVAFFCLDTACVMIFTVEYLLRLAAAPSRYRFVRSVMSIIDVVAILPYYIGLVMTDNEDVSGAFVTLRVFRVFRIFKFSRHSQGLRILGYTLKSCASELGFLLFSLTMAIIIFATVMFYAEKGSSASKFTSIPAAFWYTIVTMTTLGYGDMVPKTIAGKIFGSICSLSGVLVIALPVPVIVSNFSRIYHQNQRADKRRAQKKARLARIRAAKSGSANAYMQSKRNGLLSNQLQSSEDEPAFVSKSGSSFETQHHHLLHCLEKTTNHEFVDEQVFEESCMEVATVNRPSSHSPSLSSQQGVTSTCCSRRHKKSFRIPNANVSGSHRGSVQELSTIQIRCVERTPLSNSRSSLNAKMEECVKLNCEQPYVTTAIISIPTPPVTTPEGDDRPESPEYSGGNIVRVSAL

T2: Kv2.1 (rat brain membranes) (rat, UniProt P15387 1-857)
T2 sequence (looked up): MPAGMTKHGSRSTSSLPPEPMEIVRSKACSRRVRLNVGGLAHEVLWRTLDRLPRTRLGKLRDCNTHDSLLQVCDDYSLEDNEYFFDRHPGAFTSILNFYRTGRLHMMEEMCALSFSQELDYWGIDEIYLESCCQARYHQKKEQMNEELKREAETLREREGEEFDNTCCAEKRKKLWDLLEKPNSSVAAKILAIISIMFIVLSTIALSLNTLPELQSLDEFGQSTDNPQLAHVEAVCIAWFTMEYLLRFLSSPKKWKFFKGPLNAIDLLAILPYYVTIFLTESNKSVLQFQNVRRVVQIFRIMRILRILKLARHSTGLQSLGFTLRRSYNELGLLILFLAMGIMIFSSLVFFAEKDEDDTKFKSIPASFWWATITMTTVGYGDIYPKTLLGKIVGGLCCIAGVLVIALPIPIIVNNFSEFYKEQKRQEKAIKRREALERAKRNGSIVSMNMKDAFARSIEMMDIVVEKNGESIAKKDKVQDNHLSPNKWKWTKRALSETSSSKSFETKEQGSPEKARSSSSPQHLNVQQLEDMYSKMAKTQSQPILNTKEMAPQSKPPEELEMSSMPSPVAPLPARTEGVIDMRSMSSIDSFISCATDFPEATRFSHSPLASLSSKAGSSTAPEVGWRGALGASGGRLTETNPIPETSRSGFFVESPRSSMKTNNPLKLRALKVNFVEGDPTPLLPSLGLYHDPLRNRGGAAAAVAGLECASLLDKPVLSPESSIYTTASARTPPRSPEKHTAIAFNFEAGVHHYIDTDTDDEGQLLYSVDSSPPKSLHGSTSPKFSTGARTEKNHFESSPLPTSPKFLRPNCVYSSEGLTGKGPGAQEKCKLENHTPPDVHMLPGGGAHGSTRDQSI

T3: rat 19r (rat, UniProt P16446 1-271, limits assumed)
T3 construct: also called partial rat 19r; phosphatidylinositol transfer protein alpha
T3 sequence: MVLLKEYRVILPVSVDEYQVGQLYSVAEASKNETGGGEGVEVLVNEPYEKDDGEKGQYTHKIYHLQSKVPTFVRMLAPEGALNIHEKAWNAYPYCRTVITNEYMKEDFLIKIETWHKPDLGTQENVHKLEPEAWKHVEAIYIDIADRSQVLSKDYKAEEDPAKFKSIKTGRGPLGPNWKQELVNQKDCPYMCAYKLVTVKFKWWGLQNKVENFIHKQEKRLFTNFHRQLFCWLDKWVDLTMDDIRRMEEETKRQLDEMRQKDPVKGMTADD

T4: rat 1p (rat, UniProt B9EHT4 181-427 (mouse entry), limits assumed)
T4 construct: Partial-length clone, two-hybrid prey; also called Ip; lp
T4 sequence: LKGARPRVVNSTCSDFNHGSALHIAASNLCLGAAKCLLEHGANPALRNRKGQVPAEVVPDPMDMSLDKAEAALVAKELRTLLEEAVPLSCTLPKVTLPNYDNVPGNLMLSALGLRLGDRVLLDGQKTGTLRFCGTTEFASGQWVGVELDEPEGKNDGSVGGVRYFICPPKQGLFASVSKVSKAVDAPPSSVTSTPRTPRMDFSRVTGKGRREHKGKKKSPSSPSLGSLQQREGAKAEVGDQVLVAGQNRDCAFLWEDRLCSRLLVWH

B1: rat 1v (other)
chain: MPARVLLAYPGTEMLTQGESEGLQTLGIVVVLCSSLKLLHYLGLIDLSDDKIEDDLEMTMVCHRPEGLEQLEAQTNFTKRELQVLYRGFKNECPSGVVNEETFKQIYAQFFPHGDASTYAHYLFNAFDTTQTGSVKFEDFVTALSILLRGTVHEKLRWTFNLYDINKDGYINKEEMMDIVKAIYDMMGKYTYPVLKEDTPRQHVDVFFQKMDKNKDGIVTLDEFLESCQEDDNIMRSLQLFQNVM
notes: also called KChIP1; KchIP1
B2: KChIP3 of rat brain membranes (other, UniProt Q9JM47 1-256, looked up)
chain: MQRTKEAMKASDGSLLGDPGRIPLSKREGIKWQRPRFTRQALMRCCLIKWILSSAAPQGSDSSDSELELSTVRHQPEGLDQLQAQTKFTKKELQSLYRGFKNECPTGLVDEDTFKLIYSQFFPQGDATTYAHFLFNAFDADGNGAIHFEDFVVGLSILLRGTVHEKLKWAFNLYDINKDGYITKEEMLAIMKSIYDMMGRHTYPILREDAPLEHVERFFQKMDRNQDGVVTIDEFLETCQKDENIMSSMQLFENVI
notes: also called PCIPs (KChIPs 1, 2, and 3)
B3: KChIP2 of rat brain membranes (other, UniProt Q9JM59 1-270, looked up)
chain: MRGQGRKESLSESRDLDGSYDQLTGHPPGPSKKALKQRFLKLLPCCGPQALPSVSETLAAPASLRPHRPRPLDPDSVEDEFELSTVCHRPEGLEQLQEQTKFTRRELQVLYRGFKNECPSGIVNEENFKQIYSQFFPQGDSSNYATFLFNAFDTNHDGSVSFEDFVAGLSVILRGTIDDRLSWAFNLYDLNKDGCITKEEMLDIMKSIYDMMGKYTYPALREEAPREHVESFFQKMDRNKDGVVTIEEFIESCQQDENIMRSMQLFDNVI
notes: as for B2
B4: rat 33b07 (other)
chain: MNGVEGNNELPLANTSTSALVPEDLDLKQDQPLSEETDTVREMEAAGEAGAEGGASPDSEHCDPQLCLRVAENGCAAAAGEGLEDGLSSSKCGDAPLASVAANDSNKNGCQLAGPLSPAKPKTLEASGAVGLGSQMMPGPKKTKVMTTKGAISATTGKEGEAGAAMQEKKGVQKEKKAAGGGKDETRPRAPKINNCMDSLEAIDQELSNVNAQADRAFLQLERKFGRMRRLHMQRRSFIIQNIPGFWVTAFRNHPQLSPMISGQDEDMMRYMINLEVEELKHPRAGCKFKFIFQSNPYFRNEGLVKEYERRSSGRVVSLSTPIRWHRGQEPQAHIHRNREGNTIPSFFNWFSDHSLLEFDRIAEIIKGELWSNPLQYYLMGDGPRRGVRVPPRQPVESPRSFRFQSG
notes: also called partial rat 33b07 (clone name 9o)
B5: rat 7q (other)
chain: MAYAYLFKYIIIGDTGVGKSCLLLQFTDKRFQPVHDLTIGVEFGARMITIDGKQIKLQIWDTAGQESFRSITRSYYRGAAGALLVYDITRRDTFNHLTTWLEDARQHSNSNMVIMLIGNKSDLESRREVKKEEGEAFAREHGLIFMETSAKTASNVEEAFINTAKEIYEKIQEGVFDINNEANGIKIGPQHAATNASHGGNQGGQQAGGGCC
notes: Two-hybrid prey; The full length was obtained by RACE PCR; also called RAB2
B6: rKv1.1N (other, rat, UniProt P10499 1-164, looked up)
chain: MTVMSGENADEASAAPGHPQDGSYPRQADHDDHECCERVVINISGLRFETQLKTLAQFPNTLLGNPKKRMRYFDPLRNEYFFDRNRPSFDAILYYYQSGGRLRRPVNVPLDMFSEEIKFYELGEEAMEKFREDEGFIKEEERPLPEKEYQRQVWLLFEYPESSG
notes: Bait of the specificity test; the construct is not described; also called Kv1.1 subunits; rKvl.iN
B7: rat 5p (other)
chain: MPSQMEHAMETMMLTFHRFAGEKNYLTKEDLRVLMEREFPGFLENQKDPLAVDKIMKDLDQCRDGKVGFQSFLSLVAGLIIACNDYFVVHMKQKK
notes: Two-hybrid prey; also called Calpactin I light chain; P10
B8: rat 9qm (other)
chain: MRGQGRKESLSESRDLDGSYDQLTGHPPGPSKKALKQRFLKLLPCCGPQALPSVSENSVEDEFELSTVCHRPEGLEQLQEQTKFTRRELQVLYRGFKNECPSGIVNEENFKQIYSQFFPQGDSSNYATFLFNAFDTNHDGSVSFEDFVAGLSVILRGTIDDRLSWAFNLYDLNKDGCITKEEMLDIMKSIYDMMGKYTYPALREEAPREHVESFFQKMDRNKDGVVTIEEFIESCQQDENIMRSMQLFDNVI
B9: rat 29x (other)
chain: ARLPAPEHARQQPLLSGPEPGSSARVPVPGVASRRQPRGGKPPSGDGLESGPSPRPLLHARGEAGLHRQSGRVPHTGTAYFADEPTEAQAPGGFCVSPSLLGVRWPACATRTPGSLPLSPPSAQPRTLWPTPPAGPSSRMVARNQVAADNAISPASEPRRRPEPSSSSSSSSPAAPARPRPCPVVPAPAPGDTHFRTFRSHSDYRRITRTSALLDACGFYWGPLSVHGAHERLRAEPVGTFLVRDSRQRNCFFALSVKMASGPTSIRVHFQAGRFHLDGSRETFDCLFELLEHYVAAPRRMLGAPLRQRRVRPLQELCRQRIVAAVGRENLARIPLNPVLRDYLSSFPFQI
notes: Two-hybrid prey; also called SOCS-1; JAB

Assay [1] has as its target T1, rat Kv4.2 α-subunit. In words: cell-based or functional assay.
The target of assay [2] is T2, Kv2.1 (rat brain membranes). In words: co-immunoprecipitation from rat brain synaptic membranes.
Assay [3] concerns the target B6. In words: yeast two-hybrid.
The target of assay [4] is T5, rat 7s (rat, UniProt P50516 348-617 (mouse entry), limits assumed).
T5 construct: Partial-length clone, two-hybrid prey; Rat ortholog of the vacuolar H(+)-ATPase catalytic subunit A
In words: yeast two-hybrid.

In assay [5] the target is T3, rat 19r. In words: yeast two-hybrid.
For assay [6], the target named is T4, rat 1p. Put plainly: yeast two-hybrid.
Assay [7] has as its target T1, rat Kv4.2 α-subunit. In words: immunoprecipitation from rat brain membranes.

T5 sequence (P50516 348-617 limits assumed): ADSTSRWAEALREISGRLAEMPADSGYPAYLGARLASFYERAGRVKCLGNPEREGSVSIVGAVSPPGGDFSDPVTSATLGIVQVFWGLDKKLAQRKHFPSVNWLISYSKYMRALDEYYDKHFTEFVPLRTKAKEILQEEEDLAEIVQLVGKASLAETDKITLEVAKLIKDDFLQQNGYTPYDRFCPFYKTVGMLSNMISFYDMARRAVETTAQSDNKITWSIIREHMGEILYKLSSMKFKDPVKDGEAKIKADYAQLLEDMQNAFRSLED

With B1, in assay [1], the “Kv4.2 current density in CHO cells, fold increase with coexpression of KChIP1” value stood at 12 fold and the “amplitude of the Kv4.2 current in CHO cells, fold increase in the presence of KChIP1” value is approximately 7.5 fold. Moreover, the binding result in assay [2] is “no binding”.
Turning to B2, the binding result in assay [2] is recorded as “no binding”.
For B3, the binding result in assay [2] is given as “no binding”.
Take B4: the binding result in assay [3] is recorded as “no binding”.
Take B5: the binding result in assay [3] was “no binding”.
In the case of B6, the binding result in assay [4], in assay [5] and in assay [6] was “no binding” in each case.
Take B7: in assay [3], the binding result is “no binding”.
As for B8, in assay [7], the binding result is recorded as “binds”.
B9: the binding result in assay [3] was “no binding”.
